# Results: the supplement of paper PMC9170038
# Test system: MS2 coat protein
# Assay: apparent KD of MS2 coat protein; designed switch direction (-1 OFF switch, 1 ON switch): -1; higher = weaker reporter binding
# Outline: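 Normalised cluster fluorescence was curve-fitted, and each design's median over clusters is its apparent KD. Before this, SNAP-549-labelled MS2 coat protein was titrated from 0.7 or 1.5 nM, doubling to 3 µM, over RNA switches transcribed on Illumina chips by stalled E. coli RNA polymerase. Titrations had no input, 200 uM small-molecule ligand, or an oligonucleotide input, and steps lasted 0.8–1.5 h (lowest) to 10–20 min (highest).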
# [1] = input ligand: microRNA oligo, concentration not stated
# [2] = Eterna round: R95, input ligand: microRNA oligo, concentration not stated
# [3] = Eterna round: R95, input ligand: FMN 200 uM
# [4] = Eterna round: R95, input ligand: none
sequence,measurement,setting,value
"CAACAUGGACCUCGCUCCGACAUGAGGAUCACCCAUGUUGGAACCUUACUGGCGUCGAGUGUUGCUCGUCUUACCGU [Eternabot (Original) Solution 10] (Eterna round: R97, puzzle: Sensor, turn-off variant 1)",apparent KD of MS2 coat protein,input ligand: FMN 200 uM,189 nM
same,apparent KD of MS2 coat protein,input ligand: none,268 nM
"CAACUGUCAGGAUAUCGUGCAUACAACGAAAGUUCUAUGUGCGAGAAGGGACAUGAGGAUCACCCAUGUAAACG [Omei Ex4 A27] (Eterna round: R97, puzzle: Exclusion 4)",apparent KD of MS2 coat protein,input ligand: FMN 200 uM,199 nM
same,apparent KD of MS2 coat protein,input ligand: none,60.9 nM
"CAAGUCCUUUACUACAAGCACAUGAGGAUCACCCAUGUCAAAUUUGUGCCUCGGUACGGAAGCUCGUCUUUUCGUAG [Eternabot (L2) Solution 1] (Eterna round: R97, puzzle: Sensor, turn-off variant 1)",apparent KD of MS2 coat protein,input ligand: FMN 200 uM,30 nM
same,apparent KD of MS2 coat protein,input ligand: none,35.6 nM
"CAAUAACAAGCGAGAUCCUACAUGAGGAUCACCCAUGUGCUCGUCUUAAAAGGUACUGUGACGAUAGUCACGGUACC [Mat - Sensor, turn-off var - Eli Mod - D98] (Eterna round: R97, puzzle: Sensor, turn-off variant 1)",apparent KD of MS2 coat protein,input ligand: FMN 200 uM,15.3 nM
same,apparent KD of MS2 coat protein,input ligand: none,17.9 nM
"CAAUACAAGCGAAGAUCCUACAUGAGGAUCACCCAUGUGCUCGUCUUAAAAGGUACUGAGACGAAAGUCUCGGUACC [Mat - Sensor, turn-off var - Eli Mod - D99] (Eterna round: R97, puzzle: Sensor, turn-off variant 1)",apparent KD of MS2 coat protein,input ligand: FMN 200 uM,280 nM
same,apparent KD of MS2 coat protein,input ligand: none,367 nM
"CAAUUCAGAGGAUAUGCGCAUAGAUAAGACUUUUUUUCUUAACAUGAGGAUCACCCAUGUAGAAGGCUGUAAAC [Ex2 #62] (Eterna round: R97, puzzle: Exclusion 2)",apparent KD of MS2 coat protein,input ligand: FMN 200 uM,16.5 nM
same,apparent KD of MS2 coat protein,input ligand: none,16.8 nM
"CACAAAACUGUCAGGAUAUCAGAUGCCGACCCAUAUGAGAAGGGACAUGAGGAUCACCCAUGUACUGGUUCUCA [BmEX4 B.6] (Eterna round: R97, puzzle: Brourd's mod of Exclusion 4)",apparent KD of MS2 coat protein,input ligand: FMN 200 uM,13.9 nM
same,apparent KD of MS2 coat protein,input ligand: none,19.8 nM
"CACAAGCUUGGGCUCGCUGACAUGAGGAUCACCCAUGUCGGAUCAGACACCAAACGUCUCGAUCACGACGGAUCCAG [Eternabot (Original) Solution 7] (Eterna round: R97, puzzle: Sensor, turn-off variant 1)",apparent KD of MS2 coat protein,input ligand: FMN 200 uM,40 nM
same,apparent KD of MS2 coat protein,input ligand: none,33.3 nM
"CACAUGAGACGGAGAUCCAACAUGAGGAUCACCCAUGUCUCAAAAGCUUUUUGCUUGUCUUAUCCUCCUCUCGUGAC [Mat - Sensor, turn-off var - Eli Mod - D61] (Eterna round: R97, puzzle: Sensor, turn-off variant 1)",apparent KD of MS2 coat protein,input ligand: FMN 200 uM,47.8 nM
same,apparent KD of MS2 coat protein,input ligand: none,46.7 nM
"CACCGUUACAGAGGAUAUCGUACAUGAGGAUCACCCAUGUAAUAAAUGAGAAUUUCGGAUGUAUGCGAGAAGGCUGGAAUCGGC [Ostracism 37 - Jieux - Exclusion NG 2] (Eterna round: R96, puzzle: Exclusion NG 2)",apparent KD of MS2 coat protein,[1],20.7 nM
"CACCGUUAGAGAGGAUAUCGUACAUGAGGAUCACCCAUGUAAUAAAUGAGAAUUUCGGAUGUCUGCGAGAAGGCUCGAAUCGGC [Ostracism 32 - Jieux - Exclusion NG 2] (Eterna round: R96, puzzle: Exclusion NG 2)",apparent KD of MS2 coat protein,[1],23 nM
"CACGUGUCAGGAUAUCCCGCGCGCGCUUCACCGAGAGUGCGGGAGAAGGGACAUGAGGAUCACCCAUGUCCUUC [Eternabot (L1) Solution 93] (Eterna round: R97, puzzle: Exclusion 4)",apparent KD of MS2 coat protein,input ligand: FMN 200 uM,12.8 nM
same,apparent KD of MS2 coat protein,input ligand: none,16.2 nM
"CACUUACAUGAGGAUCACCCAUGUGAGGAUAUCGUGACCAGACGAGAAGUCUAUGUCACGAGAAGGUACAUGGG [Exclusion 1 (Mod 1.1 solution 97 by Eternabot)] (Eterna round: R97, puzzle: Exclusion 1)",apparent KD of MS2 coat protein,input ligand: FMN 200 uM,93.3 nM
same,apparent KD of MS2 coat protein,input ligand: none,574 nM
CAGACACAUGAGGAUCACCCAUGUGAGGAUAUGCGUACGUUGUCCGUAGGCGACGUGCGCAGAAGGCACAAAGG [JL-ex1-3.09 Eli mod] (puzzle: Exclusion 1),apparent KD of MS2 coat protein,[2],52.7 nM
"CAGCAGAGAGGAUAUACUUGAGGAUCACCCAAGUGACACCGCCUGGUGCGAACUUGAAGUAGAAGGUUCGGCUA [Entema] (Eterna round: R97, puzzle: Exclusion 3)",apparent KD of MS2 coat protein,input ligand: FMN 200 uM,24.7 nM
same,apparent KD of MS2 coat protein,input ligand: none,19.7 nM
"CAGCGAUCAGGAUAUACAUGAGGAUCACCCAUGUGUUCCAGCUAGGAAACUAGCAAAUGUAGAAGGGAUCGCUG [jl-ex3-4.00 salish99 mod] (Eterna round: R97, puzzle: Exclusion 3)",apparent KD of MS2 coat protein,input ligand: FMN 200 uM,32.2 nM
same,apparent KD of MS2 coat protein,input ligand: none,346 nM
"CAGCUGAAAGUGAGGAUAUAGACUGCCUCGGCAGUCUAGAAGGCACAUGAGGAUCACCCAUGUCUCAACAGCUG [BmEx4/1-B2] (Eterna round: R97, puzzle: Brourd's mod of Exclusion 4)",apparent KD of MS2 coat protein,input ligand: FMN 200 uM,70.2 nM
same,apparent KD of MS2 coat protein,input ligand: none,11.3 nM
"CAGUACAGAGGAUAUACAUGAGGAUCACCCAUGUGUUUCAGGUACGAGAGUACCGAAUGUAGAAGGCUGUACUG [jl-ex3-4.27 salish99 mod] (Eterna round: R97, puzzle: Exclusion 3)",apparent KD of MS2 coat protein,input ligand: FMN 200 uM,229 nM
same,apparent KD of MS2 coat protein,input ligand: none,24.5 nM
"CAGUACUACAAGCUAAGGGACAUGAGGAUCACCCAUGUUCGUCUUAUUGAUCUAGGUACGCUGACGUACCUAGAUCU [JL-sv1-2.18 Brourd mod] (puzzle: Sensor v3, turn-off variant 1)",apparent KD of MS2 coat protein,[3],13.6 nM
same,apparent KD of MS2 coat protein,[2],20.8 nM
same,apparent KD of MS2 coat protein,[4],13.8 nM
"CAGUACUGAGGAUAUACAUGAGGAUCACCCAUGUAUCCUAGCUAGGAAACUAGCAAAUGUAGAAGGCAGUACUG [Ex3: 818] (Eterna round: R96, puzzle: Exclusion 3)",apparent KD of MS2 coat protein,input ligand: FMN 200 uM,747 nM
same,apparent KD of MS2 coat protein,[1],53.8 nM
same,apparent KD of MS2 coat protein,input ligand: none,61.2 nM
"CAGUACUGAGGAUAUACAUGAGGAUCACCCAUGUGAACCAGCUAGGAAACUAGCAAAAGUAGAAGGCAGUACUG [828 mod 2 m7] (Eterna round: R97, puzzle: Exclusion 3)",apparent KD of MS2 coat protein,input ligand: FMN 200 uM,2260 nM
same,apparent KD of MS2 coat protein,input ligand: none,92.5 nM
"CAGUACUGAGGAUAUACAUGAGGAUCACCCAUGUGAGAAAUACUAAUGAGGUCGAUUAGUAGAAGGCAGUACUG [Mat - Exclusion 3 - Eli Mod - D32] (Eterna round: R97, puzzle: Exclusion 3)",apparent KD of MS2 coat protein,input ligand: FMN 200 uM,255 nM
same,apparent KD of MS2 coat protein,input ligand: none,19.7 nM
"CAGUACUGAGGAUAUACAUGAGGAUCACCCAUGUGCACCAGCUAGGAUACUAGCAAAAGUAGAAGGCAGUACUG [Mat - Exclusion 3 - Eli Mod - D19] (Eterna round: R97, puzzle: Exclusion 3)",apparent KD of MS2 coat protein,input ligand: FMN 200 uM,118 nM
same,apparent KD of MS2 coat protein,input ligand: none,16.1 nM
CAGUACUGAGGAUAUACAUGAGGAUCACCCAUGUGCCUUAGCUAGGAUACUAGCAUUAGUAGAAGGCAGUACUG [Fiskers Ex 3 828 mod 14] (puzzle: Exclusion 3),apparent KD of MS2 coat protein,[2],14.2 nM
CAGUACUGAGGAUAUACAUGAGGAUCACCCAUGUGUCCCUGCUAGGAAACUAGCAAUAGUAGAAGGCAGUACUG [Fiskers Ex 3 828 mod 4] (puzzle: Exclusion 3),apparent KD of MS2 coat protein,[2],17 nM
CAGUACUGAGGAUAUACAUGAGGAUCACCCAUGUGUGCCAGCUAGGAAACUAGCAAAAGUAGAAGGCAGUACUG [salish99_ex3_r3_082] (puzzle: Exclusion 3),apparent KD of MS2 coat protein,[3],102 nM
same,apparent KD of MS2 coat protein,[2],12 nM
same,apparent KD of MS2 coat protein,[4],11.9 nM
CAGUACUGAGGAUAUACAUGAGGAUCACCCAUGUGUUCCAGCUAGGAAACGAGCAAAAGUAGAAGGCAGUACUG [salish99_ex3_r3_071] (puzzle: Exclusion 3),apparent KD of MS2 coat protein,[2],19.7 nM
"CAGUACUGAGGAUAUACAUGAGGAUCACCCAUGUGUUCCAGCUGGGAAACUAGCAAAAGUAGAAGGCAGUACUG [salish99_ex3_r3_076] (Eterna round: R96, puzzle: Exclusion 3)",apparent KD of MS2 coat protein,input ligand: FMN 200 uM,287 nM
same,apparent KD of MS2 coat protein,[1],21.4 nM
same,apparent KD of MS2 coat protein,input ligand: none,21.8 nM
CAGUACUGAGGAUAUACAUGAGGAUCACCCAUGUGUUCCAGCUGGGAAACUAGCAAAAGUAGAAGGCAGUACUG [salish99_ex3_r3_076] (puzzle: Exclusion 3),apparent KD of MS2 coat protein,[3],422 nM
same,apparent KD of MS2 coat protein,[2],27.3 nM
same,apparent KD of MS2 coat protein,[4],20.8 nM
"CAGUUCCAGGGAGGAUAUCCGAAAGGAAGUGUAGGAGAAGGCCCAAACUGAAAACACAUGAGGAUCACCCAUGUAGGUGUUCUC [PowerStrip EXNG 1.20] (Eterna round: R96, puzzle: Exclusion NG 1)",apparent KD of MS2 coat protein,input ligand: FMN 200 uM,1320 nM
same,apparent KD of MS2 coat protein,[1],656 nM
same,apparent KD of MS2 coat protein,input ligand: none,659 nM
CAUACACAUGAGGAUCACCCAUGUGAGGAUAUGCGUACGUAAUCCGUAGGAGACGUGCGCAGAAGGCGCGAGGU [Mat - Mod of JL D94] (puzzle: Exclusion 1),apparent KD of MS2 coat protein,[2],38.7 nM
CAUACUCAAGUGAGGAUAUAGUCUCGGAUACGGAACUAGAAGGCACAUGAGGAUCACCCAUGUAGAGAGUAAAG [EX-4 Malc #28] (puzzle: Brourd's mod of Exclusion 4),apparent KD of MS2 coat protein,[3],56.6 nM
same,apparent KD of MS2 coat protein,[2],22.8 nM
same,apparent KD of MS2 coat protein,[4],15.9 nM
CAUACUGAAGUUAGGAUAUUCGGACGAAUACGGAUGGAGAAGGGACAUGAGGAUCACCCAUGUAGAUAGUAAAG [EX-4 Malc #13] (puzzle: Brourd's mod of Exclusion 4),apparent KD of MS2 coat protein,[3],20.1 nM
same,apparent KD of MS2 coat protein,[2],20.7 nM
same,apparent KD of MS2 coat protein,[4],19.8 nM
"CAUGAUCUUCGGAUCAUGUACAUGAGGAUCACCCAUGUGACGAGUAUAUCCUCAAACAAGCUUUUUGCUCGUCUUAU [Sensor v3 - Turn-off variant 1 - 22] (puzzle: Sensor v3, turn-off variant 1)",apparent KD of MS2 coat protein,[3],299 nM
same,apparent KD of MS2 coat protein,[2],417 nM
same,apparent KD of MS2 coat protein,[4],327 nM
